Test results: US20060110796A1

Experiments:
[1] = biological target: glycomyoglobin with GalNAc-α-threonine at position 4 (myoglobin 4TAG mutant, C-terminal 6xHis tag) (UniProt P02185); assay: enzyme-linked lectin-binding assay (ELLA); 600 ng myoglobin on plate, biotinylated lectin 10 µg/mL, streptavidin-AP, pNPP, 405 nm; reference is an equivalent concentration of tyrosine-myoglobin
[2] = biological target: glycomyoglobin with β-GlcNAc-serine at position 4 (Gly4TAG mutant myoglobin, C-terminal His6 tag) (UniProt P02185); assay: ELISA-like lectin binding assay; 200 ng myoglobin immobilized, biotinylated BSII, streptavidin-alkaline phosphatase, pNPP, A405
Sequence of glycomyoglobin with β-GlcNAc-serine at position 4 (Gly4TAG mutant myoglobin, C-terminal His6 tag) (P02185 other isoform, or with tags, fused parts or gaps mutant): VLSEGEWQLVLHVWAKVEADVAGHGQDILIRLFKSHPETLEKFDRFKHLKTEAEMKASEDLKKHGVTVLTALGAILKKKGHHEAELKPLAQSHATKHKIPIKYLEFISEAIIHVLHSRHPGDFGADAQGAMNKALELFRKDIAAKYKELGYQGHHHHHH

Sequence of glycomyoglobin with GalNAc-α-threonine at position 4 (myoglobin 4TAG mutant, C-terminal 6xHis tag) (P02185 other isoform, or with tags, fused parts or gaps mutant): as above
Sequence of Vicia Villosa lectin (VVL), biotinylated conjugate (P56625 whole entry): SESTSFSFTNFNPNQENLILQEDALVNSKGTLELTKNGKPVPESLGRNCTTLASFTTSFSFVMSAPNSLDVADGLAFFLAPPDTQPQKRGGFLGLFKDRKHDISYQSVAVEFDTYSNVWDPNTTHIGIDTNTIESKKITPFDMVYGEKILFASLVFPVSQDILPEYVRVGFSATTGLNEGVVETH

| Substance | fold signal increase for glycomyoglobin versus tyrosine-myoglobin [1] | fold signal over wild-type myoglobin [2] |
| --- | --- | --- |
| Dolichos Biflorus lectin (DBL), biotinylated conjugate (from UniProt P05045 23-275) | 5 fold | – |
| Bandeiraea simplicifolia II (BSII) lectin, biotinylated | – | > 200 fold |
| Vicia Villosa lectin (VVL), biotinylated conjugate (from UniProt P56625 1-185) | 10 fold | – |
